Consider 116 sequences from the supplement of paper PMC10724198.

± gives the standard deviation of the averaged measurements.
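Further: PSI is a weighted mean of sequencing reads over stability bins, variants kept only with over 10 reads, mCherry proximal and sfGFP distal, peptide attached via GGGS linker.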

For the series, the system named is Saccharomyces cerevisiae. Put plainly: protein stability index of tFT-peptide fusion (C-terminal peptide) (PSI (0-1 scale)); higher = more stable (slower turnover). Conditions: genetic background: wild type; temperature: 30 C. On the procedure:
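Multiplexed protein stability (MPS) profiling in S. cerevisiae. Random 12-aa peptides (tFT-X12 library) are fused to the C-terminus of a sfGFP-mCherry tandem fluorescent timer, after mCherry and a GGGS linker. Cells are FACS-sorted into 8 mCherry/sfGFP bins and deep-sequenced. The protein stability index (PSI) is the read-weighted bin average, scaled from 0 (unstable) to 1 (stable). Only peptides with >10 reads are reported; cells were grown at 30 °C in SC-His with glucose.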
With GGVAAVGGPWGN, the protein stability index came to 0.75 ± 0.052.

In the case of GGVASGGCFWGR, the protein stability index is 0.6761 ± 0.0053.

Regarding GGVECVRGTGGR, the protein stability index came out at 0.659 ± 0.046.

As to GGVGLVGEVCPI, the protein stability index is 0.688 ± 0.028.

As for GGVGRGADASLA, the protein stability index turned out to be 0.622 ± 0.017.

GGVPGEGTGGRE: the protein stability index worked out at 0.644 ± 0.027.

Turning to GGVRVPRVDVVG, the protein stability index was 0.618 ± 0.042.

Take GGWAGGRQGCGG: the protein stability index was 0.77 ± 0.012.

GGWAHGEGAGDC returned a protein stability index of 0.614 ± 0.028.

For GGWFLLTRLGNW, the protein stability index was found to be 0.684 ± 0.035.

In the case of GGWGWGERRSRE, the protein stability index came out at 0.658 ± 0.06.

The sequence GGWHVVGGEGVG displayed a protein stability index of 0.524 ± 0.0082.

The sequence GGWSHMHLGLDG came in with a protein stability index of 0.665 ± 0.024.

GGYDFRCPCCGV displayed a protein stability index of 0.723 ± 0.025.

GHGFPSLPLILS displayed a protein stability index of 0.57 ± 0.076.

GHGLLYLIDLCS had a protein stability index of 0.638 ± 0.074.

In the case of GHLCVPWFGLVL, the protein stability index is 0.659 ± 0.11.

The sequence GHRTIPHSNCLS displayed a protein stability index of 0.65 ± 0.0099.

With GHSLARHRHRGS, the protein stability index turned out to be 0.701 ± 0.0095.

For GHSNRDCFGIKC, the protein stability index turned out to be 0.621 ± 0.024.

Turning to GHWRQCSVAEGA, the protein stability index was 0.643 ± 0.0024.

With GHYLLCPQGQSD, the protein stability index is 0.6675 ± 0.0024.

For GIARRSHSNETV, the protein stability index was determined as 0.766 ± 0.078.

GIEAKPLEGKTQ yielded a protein stability index of 0.7026 ± 0.0018.

Consider GIGLYMWRNSKW, for which the protein stability index was determined as 0.796 ± 0.04.

Regarding GIGRGLGGLKSG, the protein stability index was 0.617 ± 0.026.

As to GIGRRIGSELSF, the protein stability index is 0.668 ± 0.047.

GIHFKIHKSSSN displayed a protein stability index of 0.647 ± 0.013.

With GIKTRTTRVRGE, the protein stability index was found to be 0.706 ± 0.018.

GILPDSCRSNTG had a protein stability index of 0.623 ± 0.081.

On to GILVALGSPLLV, for which the protein stability index came to 0.592 ± 0.048.

GINRLRNKEKEE returned a protein stability index of 0.775 ± 0.073.

GISGRPDGGRGG came in with a protein stability index of 0.658 ± 0.0071.

In the case of GKEEGRETGREG, the protein stability index was determined as 0.741 ± 0.038.

On to GKFKKRIRRGIK, for which the protein stability index stood at 0.695 ± 0.011.

GKGDEPKAPTDR: the protein stability index worked out at 0.65 ± 0.028.

The sequence GKGTRGTRRGGK displayed a protein stability index of 0.632 ± 0.024.

Take GKIKKTTDKILI: the protein stability index stood at 0.639 ± 0.11.

GKILSNNQIFKR: the protein stability index was found to be 0.702 ± 0.057.

In turn, GKKNNENKYDMR showed a protein stability index of 0.7304 ± 0.0051.

On to GKKRANQSRSLP, for which the protein stability index stood at 0.76 ± 0.19.

In turn, GKLHKNTDEIET gave a protein stability index of 0.762 ± 0.062.

Regarding GKLKVKIYESSK, the protein stability index was found to be 0.658 ± 0.061.

As to GKLRGTGGRAGE, the protein stability index worked out at 0.669 ± 0.012.

For the sequence GKLWTIIFPLFF, the protein stability index was 0.503 ± 0.035.

For the sequence GKPFAWVAVVGD, the protein stability index amounted to 0.729 ± 0.051.

GKREGRGRKRGG returned a protein stability index of 0.807 ± 0.092.

Turning to GKRYLIKKRKKT, the protein stability index is 0.698 ± 0.021.

Sequence GKSESATLMVTV yielded a protein stability index of 0.697 ± 0.18.

Regarding GKSGGAVRGCGG, the protein stability index is 0.657 ± 0.044.

On to GKSGVTGAGEKR, for which the protein stability index is 0.681 ± 0.06.

GKSLLPATYDYY gave a protein stability index of 0.677 ± 0.04.

GKTITNENPKGH: the protein stability index was determined as 0.705 ± 0.021.

GKVSVSGRELGG registered a protein stability index of 0.65 ± 0.033.

GLARPLYALYRR showed a protein stability index of 0.618 ± 0.081.

As for GLASLTVGAASV, the protein stability index is 0.671 ± 0.011.

Sequence GLATISARYFCL returned a protein stability index of 0.647 ± 0.064.

Turning to GLCCFWSYRASR, the protein stability index came to 0.687 ± 0.035.

With GLCHFVRLSCFC, the protein stability index was found to be 0.5186 ± 0.0024.

Sequence GLCRGHMSTMVD registered a protein stability index of 0.641 ± 0.064.

In turn, GLCVLVASCGRG came in with a protein stability index of 0.664 ± 0.15.

For GLDEVKVVSKKK, the protein stability index worked out at 0.689 ± 0.051.

As for GLDHRLALLYPS, the protein stability index stood at 0.736 ± 0.036.

GLFCGLGVGTCG had a protein stability index of 0.621 ± 0.059.

GLGEDVGLGLGW came in with a protein stability index of 0.669 ± 0.051.

As to GLGGNVLRVIFA, the protein stability index came to 0.561 ± 0.021.

Sequence GLGLASWGDLEL yielded a protein stability index of 0.739 ± 0.039.

Turning to GLGLHKDGSTGG, the protein stability index amounted to 0.6093 ± 0.003.

Sequence GLGMWSVRCAGW showed a protein stability index of 0.649 ± 0.0067.

For the sequence GLHVPLTGFCFC, the protein stability index worked out at 0.63 ± 0.02.

Turning to GLIRGFLRYPGM, the protein stability index was 0.691 ± 0.033.

With GLKWTGLEWHFL, the protein stability index came to 0.693 ± 0.041.

With GLLRSHYLDRGF, the protein stability index is 0.693 ± 0.047.

GLPRFFKNPPVV registered a protein stability index of 0.6445 ± 0.0043.

Turning to GLPWRGVGGGSG, the protein stability index amounted to 0.719 ± 0.038.

The sequence GLQPVGLYPFQL had a protein stability index of 0.668 ± 0.008.

In turn, GLRFVPLPLRPV displayed a protein stability index of 0.73 ± 0.029.

GLRLFAPRWPQA: the protein stability index was determined as 0.713 ± 0.058.

The sequence GLRLHVQCFGRV returned a protein stability index of 0.699 ± 0.024.

In turn, GLSGSPIPFIRL displayed a protein stability index of 0.731 ± 0.021.

GLSSAVSPSFGR had a protein stability index of 0.598 ± 0.017.

Sequence GLSSFIGRRGRR displayed a protein stability index of 0.713 ± 0.013.

GLSSRQHPAPTT had a protein stability index of 0.693 ± 0.05.

As for GLSWSSGGLMVF, the protein stability index was found to be 0.615 ± 0.037.

In turn, GLSYPPLQFYYH showed a protein stability index of 0.689 ± 0.012.

With GLVGCDPPPPAF, the protein stability index was determined as 0.72 ± 0.04.

Turning to GLVGSGFVCIGM, the protein stability index was found to be 0.697 ± 0.15.

In the case of GLVRGGWGTVGG, the protein stability index is 0.805 ± 0.24.

With GLVVGGLRPKRV, the protein stability index stood at 0.68 ± 0.004.

Take GLWEVVEITRRE: the protein stability index was 0.684 ± 0.049.

GMDGWGWGGSVV had a protein stability index of 0.706 ± 0.026.

Turning to GMGWGTVGDING, the protein stability index worked out at 0.709 ± 0.024.

Consider GMIRDKEVVGGG, for which the protein stability index is 0.651 ± 0.11.

Turning to GMQPRGVRRATS, the protein stability index is 0.728 ± 0.023.

On to GMRGGKGKPAET, for which the protein stability index was found to be 0.728 ± 0.0096.

For the sequence GMSSWNSISFPI, the protein stability index came out at 0.751 ± 0.073.

The sequence GNNPDHAYTSNI gave a protein stability index of 0.682 ± 0.07.

Take GNRARRSGITRF: the protein stability index is 0.809 ± 0.15.

GNTNIYIVMRES returned a protein stability index of 0.5935 ± 0.0031.

GNTPERVQRRWE had a protein stability index of 0.632 ± 0.086.

In the case of GPCFKSQPKSPI, the protein stability index worked out at 0.6807 ± 0.0024.

The sequence GPCRICNERSLI showed a protein stability index of 0.613 ± 0.0062.

Consider GPCSLVSLFAGD, for which the protein stability index came to 0.697 ± 0.017.

In turn, GPEGSDMIDPWK returned a protein stability index of 0.666 ± 0.13.

Sequence GPEVRPTLTHNE came in with a protein stability index of 0.623 ± 0.018.

Sequence GPGPRAASADCP registered a protein stability index of 0.728 ± 0.08.

Take GPLPPLHPSPTI: the protein stability index was 0.725 ± 0.016.

In turn, GPPDLSSSRVLL showed a protein stability index of 0.718 ± 0.11.

Consider GPPPPPPLPQLW, for which the protein stability index stood at 0.77 ± 0.037.

In turn, GPPRTRRRSARG registered a protein stability index of 0.668 ± 0.0068.

GPPSVSPPFSPS had a protein stability index of 0.7829 ± 0.0016.

GPRAGFRRPELE returned a protein stability index of 0.733 ± 0.043.

Turning to GPRVILALLSRR, the protein stability index came to 0.6842 ± 0.0067.

In turn, GPSHPPHLPPPV showed a protein stability index of 0.6855 ± 0.001.

Take GPSIRWWGGGRR: the protein stability index was determined as 0.731 ± 0.049.

As for GPSPFHPPPPER, the protein stability index was found to be 0.554 ± 0.0094.
